Holding throughout (format): biochemical
Data set [1] can be described thus: pH-indicator (4-nitrophenol/BES) microplate screening of commercial hydrolases, initial rates of hydrolysis. The settings on record: for Activity (R): (R)-solketal butyrate 1.0 mM; for Activity (R) / Activity (S) / Activity (±): pH 7.2, 7.1% acetonitrile, 25° C.; for Activity (S): (S)-solketal butyrate 1.0 mM; for Activity (±): (±)-solketal butyrate 1.0 mM, specific activity; for Estimated E: without Triton X-100. On the procedure:
The hydrolases were dissolved in BES buffer (5.0 mM, pH 7.2) at the concentrations listed in Table 1 (0.5-40 mg solid/mL solution). […] CaCl2 (2 mM) was added to the protease solutions since some proteases require calcium ions to maintain their structure. For hydrolase samples with low protein content, saturated solutions (up to 40 mg solid/ml) were utilized for hydrolase samples and with high protein content were utlized, lower concentrations (typically, 1 mg solid/ml) were utilized. Each solution was centrifuged to remove insoluble material (5 min, 2,000 rpm) and titrated to a final pH of 7.2. The protein concentrations were determined using a dye-binding assay from Bio-Rad (Mississauga, ON) with bovine serum albumin (BSA) as the standard. Solutions were stored in a 96-well assay block ‘mother plate’ equipped with aluminum sealing tape (2 mL maximum volume in each well, Corning Costar, Acton, Mass.) at −20° C.
Hydrolase solutions (5 μL/well) were transferred from the mother plate to a 96-well microtiter plate using an 8-channel pipette. Assay solution (100 μL/well) was quickly added to each well using a 1,200 μL 8-channel pipette. The final concentrations in each well were 1.0 mM substrate, 4.65 mM BES, 0.434 mM 4-nitrophenol, 7.1% acetonitrile. The plate was quickly placed in the microplate reader, shaken for 10 s to ensure complete mixing and the decrease in absorbance at 404 nm was monitored at 25° C. as often as permitted by the microplate software, typically every 11 seconds. […] Data were collected for one hour to ensure slow reactions and reactions with a lag time were detected. Each hydrolysis was carried out in quadruplicate and was averaged. […] For this reason. the first 10 s of data was typically deleted from the calculation of the initial rate. Activities were calculated from slopes in the linear portion of the curve usually over the first two hundred seconds. […] To calculate specific activity (μmol/min/mg protein), the total amount of protein in each well was taken into account.
The assay was used to screen for enantioselective hydrolases in 96-well microplates. Using pure enantiomers, the initial rates of hydrolysis of each enantiomer of solketal butyrate was measured separately. […] Note that the ratio of separately measured initial rates of hydrolysis of the enantiomers is not the true enantioselectivity, so this screening provides only an estimated enantioselectivity. The true enantioselectivity is the ratio of the specificity constants (kcat/KM) for each enantiomer. By measuring initial rates of the enantiomers separately, competitive binding between the two enantiomers was eliminated. At saturating substrate conditions, the relative initial rates equal the relative kcat values; at partially saturating conditions, the initial rates also depend on the KM values. Thus, the ratio of separately measured initial rates ignores some or all of the effect of KM on enantioselectivity. In spite of this inaccuracy, the relative initial rate provides an estimated enantioselectivity.

A short description of data set [2]: Separately measured initial rates of chromogenic esters (404 nm), estimated E. The settings on record: substrate 1. As for the experimental part:
The initial rates of hydrolysis of 4-nitrophenyl esters of pure enantiomers were determined to quickly estimate the enantioselectivity of several lipases towards three common chiral carboxylic acids: 2-phenylpropanoic acid, p-nitro phenyl ester (or, 4-nitrophenyl 2-phenylpropanoate), 1; 2-(4-isobutylphenyl)propanoic acid (commercially available as Ibuprofen), 2; and phenylalanine, 3, FIG. 5. The rates of hydrolysis of 4-nitrophenyl esters were conveniently determined spectrophotometrically by monitoring the rate of release of 4-nitrophenoxide anion at 404 nm, FIG. 6. The ratio of separately measured initial rates of hydrolysis estimated the enantioselectivity. The quick E of phenylalanine, 3, was not measured because of its instability in aqueous solution.
Separately measured initial rates of chromogenic esters. 4-nitrophenyl esters of 2- phenylpropanoic acid, 1, and 2-(4-isobutylphenyl)propanoic acid, 2, were emulsified in aqueous solutions according to Vorderwuibecke. A solution of (R) or (S)-4-nitrophenyl-esster (500 μL of a 7.8 mM solution in acteonitrile) was added dropwise to Tris buffer (9000 μL, 50 mM, pH 7.5) containing 0.45 w/v % Triton X-100 (Pierce Surfact-Amps) and vortexed until clear. This emulsion remained clear for at least 3 hours. To measure the initial rates of hydrolysis, lipase solutions from Table 3 (100 μL) were added to the substrate emulsion (900 μL) in a cuvette at 25° C. and the linear increase in absorbance at 404 nm was monitored for 15 s. The final concentrations in the cuvettes were 0.369 mM substrate, 0.39% Triton X-100, 45 mM Tris buffer, 4.76% acetonitrile. No spontaneous chemical hydrolysis was detected. Solutions of 4-nitrophenyl esters of phenylalanine, 3, in acetonitrile (5 IL of a 50 mM solution in acetonitrile) were added to HEPES buffer (1000 μL, 10 mM , pH 7.5). To measure the rates of hydrolysis, 5 μL of ANL solution was added and the change in absorbance monitored as above.

The nature of data set [3]: Endpoint method: small-scale enzyme-catalyzed hydrolysis, ee by HPLC, true E. To be noted: substrate 1.
Data set [4] can be described thus: Quick E of chromogenic ester with resorufin tetradecanoate reference. To be noted: substrate 1. On the procedure:
To reintroduce competition, resorufin tetradecanoate was added as a reference compound, FIG. 7. The initial rates of hydrolysis of (S)-1 were monitored at 404 nm and the reference compound at 572 nm in the same solution. After taking into account the initial concentrations of both substrates, the ratio of these rates yielded the selectivity of the hydrolase for (S)-1 over the reference compound, Eq 8.
A second experiment using (R)-1 and the reference compound yielded the selectivity of (R)-1 over the reference compound. The ratio of these two selectivities yields the enantiomeric ratio, Eq. 9.
Substrate solutions were the same as for separately measured initial rate measurements, but a solution of resorufin tetradecanaote 6 (0.5 mL of a 1.59 mM solution in acetonitrile) was added slowly to the vortexing solutions of pure enantiomers. It was necessary to use a 2-fold increase in the concentration of Triton X-100 to solubilize resorufin tetradecanoate. The emulsions remained clear for at least 2 hours. To measure the initial rates of hydrolysis, lipase solutions from Table 4 (100 μL) was added to the substrate emulsion (900 μL) in a cuvette at 25° C. and the linear increase in absorbances at 404 nm and 574 nm were monitored for 15 s. Rates are calculated in μmol/min/mg protein after taking into account the amount of protein in each cuvette. […] No spontaneous chemical hydrolysis was detected at 404 nm or 574 nm.

Data set [5] is described as follows: pH-indicator screening under interfacial activation conditions (Triton X-100). The settings on record: 2.8 mM Triton X-100 in the wells. On the procedure:
The procedure was the same as above except that the BES buffer (5 mM, pH 7.2) contained Triton-X 100 (8.45 mM). Final concentration of Triton X-100 in the wells was 2.8 mM.
The reaction conditions in the assay were altered in an attempt to increase the estimated enantioselectivity toward solketal butyrate. For example, the activity of hydrolases, especially lipases, often increases in the presence of an interface. It was reasoned that this interfacial activation may also change the enantioselectivity. The hydrolase library was screened with Triton X-100 (a non-ionic detergent) added to create micelles. The reaction rates increased for eight hydrolases (three lipases and five esterases), decreased for thirty-two hydrolases, and stayed constant for twelve hydrolases. Unfortunately, the estimated enantioselectivities remained unchanged or decreased slightly for the best hydrolases: AOP (decrease from 4.9 to 4.2), ROL (decrease from 11.3 to 9.6), HLE (decrease from 12.2 to 7.6), BSP (decrease from 7.3 to 5.4). […] For example, subtilisin Carlsberg increased from 2.6 to 2.8, esterase from Bacillus stearothermophilus increased from 1.7 to 2.4 and Aspergillus oryzae lipase decreased from 4.95 to 1.8.

Where [6] appears, read: ratio of separately measured initial rates of the enantiomers.
Where [7] appears, read: 0.37 mM substrate, 0.38% Triton X-100, 45.2 mM Tris Buffer, 4.76% acetonitrile.

B1: Proteinase K: commercial protease (protein, UniProt P06873 106-384, looked up)
Proteinase K: AAQTNAPWGLARISSTSPGTSTYYYDESAGQGSCVYVIDTGIEASHPEFEGRAQMVKTYYYSSRDGNGHGTHCAGTVGSRTYGVAKKTQLFGVKVLDDNGSGQYSTIIAGMDFVASDKNNRNCPKGVVASLSLGGGYSSSVNSAAARLQSSGVMVAVAAGNNNADARNYSPASEPSVCTVGASDRYDRRSSFSNYGSVLDIFGPGTSILSTWIGGSTRSISGTSMATPHVAGLAAYLMTLGKTTAASACRYIADTANKGDLSNIPFGTVNLLAYNNYQA
Take B1: in data set [1], the “Activity (R)” value is 3.08 μmol/min/mg protein, the “Activity (S)” value is recorded as 2.29 μmol/min/mg protein and the “Activity (±)” value was 2.14 μmol/min/mg protein. The “Estimated E” value in data set [1] (setting [6]) was 1.24.

B2: Porcine pancreas: commercial lipase from porcine pancreas (protein, UniProt P00591 1-450, looked up)
Pancreatic triacylglycerol …: SEVCFPRLGCFSDDAPWAGIVQRPLKILPWSPKDVDTRFLLYTNQNQNNYQELVADPSTITNSNFRMDRKTRFIIHGFIDKGEEDWLSNICKNLFKVESVNCICVDWKGGSRTGYTQASQNIRIVGAEVAYFVEVLKSSLGYSPSNVHVIGHSLGSHAAGEAGRRTNGTIERITGLDPAEPCFQGTPELVRLDPSDAKFVDVIHTDAAPIIPNLGFGMSQTVGHLDFFPNGGKQMPGCQKNILSQIVDIDGIWEGTRDFVACNHLRSYKYYADSILNPDGFAGFPCDSYNVFTANKCFPCPSEGCPQMGHYADRFPGKTNGVSQVFYLNTGDASNFARWRYKVSVTLSGKKVTGHILVSLFGNEGNSRQYEIYKGTLQPDNTHSDEFDSDVEVGDLQKVKFIWYNNNVINPTLPRVGASKITVERNDGKVYDFCSQETVREEVLLTLNPC
Take B2: in data set [2] (setting [7]), the “Initial Rate (R)” value was 0.00403 μmol/min/mg protein and the “Initial Rate (S)” value was 0.0059 μmol/min/mg protein. The “Estimated E” value in data set [2] (ratio of separately measured initial rates) is recorded as 1.4 ± 0.1. In data set [3], this molecule registered a C of 4.0 and an eep of 2.0. Moreover, in data set [3] (Tris buffer pH 8.0, room temperature), the “Endpoint E” value amounted to 1.1 ± 0.1. Further, the “(R)-enantiomer + ref, rate 404 nm” value in data set [4] (0.351 mM (R)-ester + 0.071 mM resorufin tetradecanoate, Tris pH 8, 25°) is recorded as 0.000659 μmol/min/mg protein. In addition, the “(S)-enantiomer + ref, rate 404 nm” value in data set [4] (0.351 mM (S)-ester + 0.071 mM resorufin tetradecanoate, Tris pH 8, 25°) is on record as 0.00105 μmol/min/mg protein. Moreover, in data set [4] (error = standard deviation for 3 measurements), the “Quick E” value was found to be 1.4 ± 0.2. In addition, the “(R)-enantiomer + ref, rate 574 nm” value in data set [4] (reference hydrolysis in presence of (R)-ester) is reported as 0.00437 μmol/min/mg protein. Further, in data set [4] (reference hydrolysis in presence of (S)-ester), the “(S)-enantiomer + ref, rate 574 nm” value turned out to be 0.000495 μmol/min/mg protein.

B3: Subtilisin Carlsberg: commercial protease (protein, UniProt P00780 106-379, looked up)
Subtilisin Carlsberg: AQTVPYGIPLIKADKVQAQGFKGANVKVAVLDTGIQASHPDLNVVGGASFVAGEAYNTDGNGHGTHVAGTVAALDNTTGVLGVAPSVSLYAVKVLNSSGSGSYSGIVSGIEWATTNGMDVINMSLGGASGSTAMKQAVDNAYAKGVVVVAAAGNSGSSGNTNTIGYPAKYDSVIAVGAVDSNSNRASFSSVGAELEVMAPGAGVYSTYPTNTYATLNGTSMASPHVAGAAALILSKHPNLSASQVRNRLSSTATYLGSSFYYGKGLINVEAAAQ
Regarding B3, in data set [5], the “estimated enantioselectivity with Triton X-100” value is given as 2.8. In addition, in data set [1], the “Activity (R)” value amounted to 0.213 μmol/min/mg protein, the “Activity (S)” value worked out at 0.082 μmol/min/mg protein and the “Activity (±)” value was 0.083 μmol/min/mg protein. The “Estimated E” value in data set [1] (setting [6]) was 2.60. In data set [1] (ratio of separately measured initial rates of the enantiomers, listed as subtilisin Carlsberg), the “Estimated E” value was 2.6.

B4: Themsolysin, Type X: commercial protease (protein, UniProt P00800 233-548, looked up)
Thermolysin: ITGTSTVGVGRGVLGDQKNINTTYSTYYYLQDNTRGNGIFTYDAKYRTTLPGSLWADADNQFFASYDAPAVDAHYYAGVTYDYYKNVHNRLSYDGNNAAIRSSVHYSQGYNNAFWNGSQMVYGDGDGQTFIPLSGGIDVVAHELTHAVTDYTAGLIYQNESGAINEAISDIFGTLVEFYANKNPDWEIGEDVYTPGISGDSLRSMSDPAKYGDPDHYSKRYTGTQDNGGVHINSGIINKAAYLISQGGTHYGVSVVGIGRDKLGKIFYRALTQYLTPTSNFSQLRAAAVQSATDLYGSTSQEVASVKQAFDAVGVK
Turning to B4, in data set [1], the “Activity (R)” value was 0.255 μmol/min/mg protein, the “Activity (S)” value was determined as 0.738 μmol/min/mg protein, the “Activity (±)” value is 0.095 μmol/min/mg protein and the “Estimated E” value is given as 5. In addition, the “Estimated E” value in data set [1] (setting [6]) is 2.89.

(Values after US20020177180A1, “pH-indicator based assay for selective enzymes” (ThermoGen, Inc., priority 1998, published 2002).)
